T1: monkey (Macaca fascicularis) HER3 on CHO-fasHER3 cells (monkey (Macaca fascicularis), UniProt P21860 20-643 (human entry))
T1 construct: CHO-S cells transfected with fasHER3
T1 chain: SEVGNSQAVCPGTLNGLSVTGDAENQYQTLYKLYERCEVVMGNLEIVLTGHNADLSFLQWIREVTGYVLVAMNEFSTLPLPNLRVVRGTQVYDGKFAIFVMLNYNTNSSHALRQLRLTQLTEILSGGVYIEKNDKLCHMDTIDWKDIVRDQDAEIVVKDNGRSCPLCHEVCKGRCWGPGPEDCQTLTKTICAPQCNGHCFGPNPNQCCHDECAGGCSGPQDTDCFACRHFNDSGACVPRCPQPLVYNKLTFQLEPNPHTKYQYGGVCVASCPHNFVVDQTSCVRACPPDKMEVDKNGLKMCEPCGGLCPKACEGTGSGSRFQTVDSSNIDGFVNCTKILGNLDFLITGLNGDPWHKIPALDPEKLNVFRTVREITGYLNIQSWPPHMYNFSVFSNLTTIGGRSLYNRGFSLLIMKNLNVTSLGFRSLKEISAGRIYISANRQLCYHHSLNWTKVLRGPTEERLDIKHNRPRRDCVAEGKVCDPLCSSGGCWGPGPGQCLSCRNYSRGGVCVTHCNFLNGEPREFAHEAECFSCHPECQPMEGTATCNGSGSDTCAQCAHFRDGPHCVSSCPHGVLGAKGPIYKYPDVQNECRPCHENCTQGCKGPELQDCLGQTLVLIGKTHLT


Tests used:
[1] = target: T2, human HER3 on CHO-hHER3 cells (human, UniProt P21860 20-643); experiment: flow cytometry, transfected CHO cells
T2 construct: CHO-S cells transfected with hHER3
Method: (§1) Specifically, CHO-hHER3 cells, CHO-fasHER3 cells, NIH3T3-hMET cells or NIH3T3-fasMET cells were transferred to a 96-well plate at a density of 5×10⁴ cells/well respectively. The antibodies were added to the 96-well plate, and incubated at 4° C. for 30 min.

[2] = target: T1, monkey (Macaca fascicularis) HER3 on …; experiment: flow cytometry, transfected CHO cells
Method: as §1

[3] = target: T3, human MET on NIH3T3-hMET cells (human, UniProt P08581 25-1390); experiment: flow cytometry, transfected NIH3T3 cells
T3 construct: NIH3T3 cells transfected with a plasmid expressing hMET
T3 sequence (P08581 25-1390 limits assumed): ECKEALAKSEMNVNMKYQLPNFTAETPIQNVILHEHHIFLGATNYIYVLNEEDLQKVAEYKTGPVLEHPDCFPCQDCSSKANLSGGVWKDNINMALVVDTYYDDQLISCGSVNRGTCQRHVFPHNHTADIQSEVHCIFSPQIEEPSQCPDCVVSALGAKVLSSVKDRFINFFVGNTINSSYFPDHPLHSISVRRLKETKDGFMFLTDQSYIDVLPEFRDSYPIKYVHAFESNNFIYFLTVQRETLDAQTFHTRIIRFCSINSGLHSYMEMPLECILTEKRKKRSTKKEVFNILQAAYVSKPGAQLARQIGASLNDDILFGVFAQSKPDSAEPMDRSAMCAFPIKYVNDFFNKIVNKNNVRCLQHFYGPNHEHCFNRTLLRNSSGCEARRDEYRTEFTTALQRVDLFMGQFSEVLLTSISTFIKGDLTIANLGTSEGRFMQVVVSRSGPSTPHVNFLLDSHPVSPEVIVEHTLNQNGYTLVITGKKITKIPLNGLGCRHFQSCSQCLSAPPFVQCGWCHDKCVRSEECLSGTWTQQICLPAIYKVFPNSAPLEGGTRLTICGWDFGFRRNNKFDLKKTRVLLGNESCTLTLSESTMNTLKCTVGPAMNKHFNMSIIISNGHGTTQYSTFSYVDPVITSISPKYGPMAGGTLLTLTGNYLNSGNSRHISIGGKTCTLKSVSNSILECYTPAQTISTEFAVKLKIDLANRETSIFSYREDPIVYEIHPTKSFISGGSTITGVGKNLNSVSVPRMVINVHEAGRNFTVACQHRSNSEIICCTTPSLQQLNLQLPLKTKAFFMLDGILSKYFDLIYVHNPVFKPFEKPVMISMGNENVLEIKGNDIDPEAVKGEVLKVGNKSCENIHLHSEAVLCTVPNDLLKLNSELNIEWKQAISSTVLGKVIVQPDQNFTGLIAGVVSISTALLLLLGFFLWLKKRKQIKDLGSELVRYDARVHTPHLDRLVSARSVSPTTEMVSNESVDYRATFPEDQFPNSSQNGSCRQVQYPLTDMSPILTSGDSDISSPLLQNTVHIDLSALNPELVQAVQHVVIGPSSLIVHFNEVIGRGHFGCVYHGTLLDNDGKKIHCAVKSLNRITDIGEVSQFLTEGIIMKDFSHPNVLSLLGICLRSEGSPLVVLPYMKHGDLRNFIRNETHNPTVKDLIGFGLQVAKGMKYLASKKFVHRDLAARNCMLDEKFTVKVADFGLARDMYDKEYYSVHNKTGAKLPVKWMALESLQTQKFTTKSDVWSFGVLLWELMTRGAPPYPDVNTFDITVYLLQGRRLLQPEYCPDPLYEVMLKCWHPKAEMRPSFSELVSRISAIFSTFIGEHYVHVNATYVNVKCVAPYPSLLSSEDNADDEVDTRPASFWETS
Method: as §1

[4] = target: T4, monkey MET on NIH3T3-fasMET cells (monkey, UniProt A0M8R7 25-1381); experiment: flow cytometry, transfected NIH3T3 cells
T4 construct: NIH3T3 cells transfected with a plasmid expressing fasMET
T4 sequence (A0M8R7 25-1381 S170N/I621T limits assumed): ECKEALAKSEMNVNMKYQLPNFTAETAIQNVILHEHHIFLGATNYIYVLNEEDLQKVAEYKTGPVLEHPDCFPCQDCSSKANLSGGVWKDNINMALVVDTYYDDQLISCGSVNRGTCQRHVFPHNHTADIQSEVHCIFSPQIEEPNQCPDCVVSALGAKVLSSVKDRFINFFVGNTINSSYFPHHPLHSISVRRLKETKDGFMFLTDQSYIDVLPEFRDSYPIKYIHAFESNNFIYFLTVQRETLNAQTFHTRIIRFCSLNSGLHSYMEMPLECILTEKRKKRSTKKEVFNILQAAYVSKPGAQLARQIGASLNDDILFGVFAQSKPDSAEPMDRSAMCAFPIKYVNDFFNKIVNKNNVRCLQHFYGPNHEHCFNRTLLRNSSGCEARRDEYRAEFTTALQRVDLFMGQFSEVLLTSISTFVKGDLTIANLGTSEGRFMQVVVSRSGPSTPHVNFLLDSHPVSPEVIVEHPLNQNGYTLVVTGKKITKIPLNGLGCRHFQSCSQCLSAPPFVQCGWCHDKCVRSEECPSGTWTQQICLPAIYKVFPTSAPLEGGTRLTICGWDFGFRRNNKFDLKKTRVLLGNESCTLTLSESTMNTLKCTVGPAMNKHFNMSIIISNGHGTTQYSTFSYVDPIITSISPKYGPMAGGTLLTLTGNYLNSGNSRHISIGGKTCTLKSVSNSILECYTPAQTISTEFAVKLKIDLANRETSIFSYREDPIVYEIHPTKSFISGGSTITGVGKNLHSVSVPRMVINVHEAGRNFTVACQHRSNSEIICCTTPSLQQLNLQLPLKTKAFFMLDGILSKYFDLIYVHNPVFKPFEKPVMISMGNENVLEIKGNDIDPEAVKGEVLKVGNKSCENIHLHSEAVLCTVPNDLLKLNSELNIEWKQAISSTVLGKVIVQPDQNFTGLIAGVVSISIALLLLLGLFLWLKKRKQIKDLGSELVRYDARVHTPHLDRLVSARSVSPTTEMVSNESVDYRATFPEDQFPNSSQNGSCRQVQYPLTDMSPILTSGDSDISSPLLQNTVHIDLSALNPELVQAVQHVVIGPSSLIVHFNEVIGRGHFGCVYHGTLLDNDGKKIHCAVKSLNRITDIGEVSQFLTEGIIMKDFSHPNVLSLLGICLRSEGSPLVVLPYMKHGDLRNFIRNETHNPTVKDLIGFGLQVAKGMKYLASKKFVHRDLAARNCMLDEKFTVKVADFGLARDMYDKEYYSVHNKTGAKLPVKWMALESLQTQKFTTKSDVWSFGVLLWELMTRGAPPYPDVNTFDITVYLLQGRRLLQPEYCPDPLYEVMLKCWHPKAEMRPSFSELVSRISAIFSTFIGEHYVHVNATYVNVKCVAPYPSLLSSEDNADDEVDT
Method: as §1

[5] = target: T5, His-tagged human HER3 protein (hHER3, ACRO Biosystems Inc., Cat #: ER3-H5223) (human, UniProt P21860 20-643); experiment: SPR, Ab captured on Protein A, antigen 400 nM
T5 construct: Bought protein; also called hHER3-His; not shown: His tag
Method: (§2) Purified antibodies were captured on the Protein A chip (Series S Sensor Chip Protein A) for the detection. 2 μg/mL antibodies were loaded at 10 μL/min to bind to hHER3, fasHER3, hMET or fasMET (400 and 0 nM). The flow rate was 30 μL/min, the binding and dissociation time were set to 180 s and 400 s, respectively. The chip was regenerated after the last injection of each titration with a glycine solution ([…]) at 30 μL/min for 30 seconds.

[6] = target: T6, His-tagged monkey HER3 protein (fasHER3, Sino Biological, Inc., Cat #: 90043-K08H) (monkey); experiment: SPR, Ab captured on Protein A, antigen 400 nM
T6 construct: Bought protein
Method: as §2

[7] = target: T7, His-tagged human MET (hMET, Sino Biological, Inc., Cat #: 10692-H08H) (human, UniProt P08581 25-932); experiment: SPR, Ab captured on Protein A, antigen 400 nM
T7 construct: Bought protein; not shown: His tag
T7 sequence (P08581 25-932 limits assumed): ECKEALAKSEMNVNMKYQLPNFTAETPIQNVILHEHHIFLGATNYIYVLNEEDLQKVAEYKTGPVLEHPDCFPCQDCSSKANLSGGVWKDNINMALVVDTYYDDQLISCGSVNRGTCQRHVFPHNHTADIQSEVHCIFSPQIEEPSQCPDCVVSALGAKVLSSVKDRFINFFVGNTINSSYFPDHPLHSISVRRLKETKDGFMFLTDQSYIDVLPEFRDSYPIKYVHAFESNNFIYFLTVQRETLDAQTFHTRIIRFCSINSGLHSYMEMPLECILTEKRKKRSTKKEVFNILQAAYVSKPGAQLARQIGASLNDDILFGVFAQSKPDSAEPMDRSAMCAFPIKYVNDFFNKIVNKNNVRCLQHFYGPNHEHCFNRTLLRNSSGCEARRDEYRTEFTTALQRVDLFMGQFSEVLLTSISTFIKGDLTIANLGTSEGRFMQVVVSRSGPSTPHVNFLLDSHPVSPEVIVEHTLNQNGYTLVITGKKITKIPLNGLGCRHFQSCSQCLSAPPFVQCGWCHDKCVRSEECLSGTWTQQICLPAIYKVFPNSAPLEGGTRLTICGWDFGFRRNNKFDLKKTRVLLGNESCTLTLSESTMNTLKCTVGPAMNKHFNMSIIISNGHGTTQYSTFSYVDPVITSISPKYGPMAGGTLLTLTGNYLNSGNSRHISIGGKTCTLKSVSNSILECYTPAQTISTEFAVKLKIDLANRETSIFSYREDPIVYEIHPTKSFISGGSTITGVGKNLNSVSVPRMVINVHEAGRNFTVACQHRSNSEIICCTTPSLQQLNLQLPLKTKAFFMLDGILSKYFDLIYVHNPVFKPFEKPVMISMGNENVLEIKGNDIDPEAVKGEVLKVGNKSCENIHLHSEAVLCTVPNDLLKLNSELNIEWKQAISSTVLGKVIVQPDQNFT
Method: as §2

| Positive Cells [1] [%] | Positive Cells [2] [%] | Positive Cells [3] [%] | Positive Cells [4] [%] | Kd [5] [nM] | koff [5] [s⁻¹] | kon [5] [M⁻¹ s⁻¹] | Kd [6] [nM] | koff [6] [s⁻¹] | kon [6] [M⁻¹ s⁻¹] | Kd [7] [nM] | koff [7] [s⁻¹] | kon [7] [M⁻¹ s⁻¹] | Binder |
| --- | --- | --- | --- | --- | --- | --- | --- | --- | --- | --- | --- | --- | --- |
| 56.9 | 55.1 | 99.6 | 55.1 | 32.7 | 0.000777 | 23700 | 92.5 | 0.000844 | 9120 | 18 | 0.00122 | 68000 | anti-HER3/MET bispecific antibody 1C5-8E2 (bispecific antibody, V domains shown) VH 1: QVQLVESGGGVVQPGKSLRLSCAASGFTFSRSGMHWVRQAPGKGLEWVALISFDGSNKYYADSVKGRFTISRDNSKNTLNLQMNSLRAEDTAVYYCAKGGFGVVIYDAFDIWGHGTMVTVSS VH 2: QVQLVQSGPALVKPTQTLTLTCTFSGFSLYTSGVAVAWIRQPPGKALEWLALIYWDDDKWYTPSLKTRLSITKDTSKNQVVLTMTNMDPVDTATYYCAHRGSFNWNYGYFDYWGQGTLVTVSS VL: not shown |
| 56.3 | 61.4 | 99.6 | 54.3 | 13.8 | 0.00252 | 183000 | 31.5 | 0.0025 | 79300 | 14 | 0.000998 | 71400 | anti-HER3/MET bispecific antibody 1B2-8E2 (bispecific antibody, V domains shown) VH 1: QVQLVQSGPVLVKPTETLTLTCTVSTFSLSNARMGVSWIRQPPGKALEWLAHIFSNDDKSYSPSLKSRLTISKDTSKTQVVLTMTNMDPVDTATYYCSRMRYSGGPFDYWGQGSLVTVSS VH 2: QVQLVQSGPALVKPTQTLTLTCTFSGFSLYTSGVAVAWIRQPPGKALEWLALIYWDDDKWYTPSLKTRLSITKDTSKNQVVLTMTNMDPVDTATYYCAHRGSFNWNYGYFDYWGQGTLVTVSS VL: not shown |
| 54 | 55.5 | 99.8 | 64.9 | 16.7 | 0.00262 | 157000 | 38.9 | 0.00261 | 67100 | 35.7 | 0.000973 | 27200 | anti-HER3/MET bispecific antibody 1B2-8D9 (bispecific antibody, V domains shown) VH 1: QVQLVQSGPVLVKPTETLTLTCTVSTFSLSNARMGVSWIRQPPGKALEWLAHIFSNDDKSYSPSLKSRLTISKDTSKTQVVLTMTNMDPVDTATYYCSRMRYSGGPFDYWGQGSLVTVSS VH 2: QVQLQESGPGLVKPSETLSLTCTVSGGSISGHYWSWIRQSPGKGLEWIGYITYSGSTNYNPSLKSRVTISVDTSKNQFSLKLSSVTAADTAVYYCGTIAVAGRVYYYGVDVWGRGTTVTVSS VL: not shown |
| 56.4 | 50.3 | 99.8 | 87.3 | 14.8 | 0.00342 | 231000 | 33.7 | 0.00325 | 96400 | 43.1 | 0.00285 | 66100 | anti-HER3/MET bispecific antibody 3E1-2F11 (bispecific antibody, V domains shown) VH 1: EVQLVQSGPVLAKPTETLTLTCTVSGFSLSNIRMGVSWIRQPPGKALEWLAHIFSNDDKSYSPSLKNRLTISKDTSKSQVVLTMTTMDPMDTATYYCTRMKYSGGPFDYWGQGTLVTVSS VH 2: EVQLVESGPGLVKPSETLSLTCTVSGGSISSNYWSWIRQPPGKGLEWIGYIYHSGSTNYNPSLKSRVTISVDTSKNQFSLKLSSVTAADTAVYFCARGPVSIFGVVKYIDLWGRGTLVTVSS VL: not shown |
| 58.4 | 63.9 | 99.5 | 54.8 | 13.2 | 0.0035 | 266000 | 29 | 0.00329 | 113000 | 16.9 | 0.0012 | 71100 | anti-HER3/MET bispecific antibody 3E1-8E2 (bispecific antibody, V domains shown) VH 1: EVQLVQSGPVLAKPTETLTLTCTVSGFSLSNIRMGVSWIRQPPGKALEWLAHIFSNDDKSYSPSLKNRLTISKDTSKSQVVLTMTTMDPMDTATYYCTRMKYSGGPFDYWGQGTLVTVSS VH 2: QVQLVQSGPALVKPTQTLTLTCTFSGFSLYTSGVAVAWIRQPPGKALEWLALIYWDDDKWYTPSLKTRLSITKDTSKNQVVLTMTNMDPVDTATYYCAHRGSFNWNYGYFDYWGQGTLVTVSS VL: not shown |

Second part, the binder before the results:

| Binder | Positive Cells [1] [%] | Positive Cells [2] [%] | Positive Cells [3] [%] | Positive Cells [4] [%] | Kd [5] [nM] | koff [5] [s⁻¹] | kon [5] [M⁻¹ s⁻¹] | Kd [6] [nM] | koff [6] [s⁻¹] | kon [6] [M⁻¹ s⁻¹] | Kd [7] [nM] | koff [7] [s⁻¹] | kon [7] [M⁻¹ s⁻¹] |
| --- | --- | --- | --- | --- | --- | --- | --- | --- | --- | --- | --- | --- | --- |
| anti-HER3/MET bispecific antibody 3G6-2F11 (bispecific antibody, V domains shown) VH 1: QVQLVQSGPVLVKPTETLTLTCTVSGFSLSNIRMGVSWIRQPPGKALEWLAHIFSNDDKSYSTSLKSRLTISKDTSKSQVVLTMTNVDPVDTATYYCTRMRYSGGPFDYWGQGTLVTVSS VH 2: EVQLVESGPGLVKPSETLSLTCTVSGGSISSNYWSWIRQPPGKGLEWIGYIYHSGSTNYNPSLKSRVTISVDTSKNQFSLKLSSVTAADTAVYFCARGPVSIFGVVKYIDLWGRGTLVTVSS VL: not shown | 47.3 | 56 | 99.8 | 72.9 | 47.4 | 0.0106 | 224000 | 90.2 | 0.0103 | 114000 | 50.7 | 0.00256 | 50500 |
| anti-HER3/MET bispecific antibody 3G6-8E2 (bispecific antibody, V domains shown) VH 1: QVQLVQSGPVLVKPTETLTLTCTVSGFSLSNIRMGVSWIRQPPGKALEWLAHIFSNDDKSYSTSLKSRLTISKDTSKSQVVLTMTNVDPVDTATYYCTRMRYSGGPFDYWGQGTLVTVSS VH 2: QVQLVQSGPALVKPTQTLTLTCTFSGFSLYTSGVAVAWIRQPPGKALEWLALIYWDDDKWYTPSLKTRLSITKDTSKNQVVLTMTNMDPVDTATYYCAHRGSFNWNYGYFDYWGQGTLVTVSS VL: not shown | 55.2 | 58.4 | 99.6 | 51.6 | 38.9 | 0.0101 | – | 67.2 | – | – | 14.8 | 0.00113 | – |
| anti-HER3/MET bispecific antibody 3E1-8D9 (bispecific antibody, V domains shown) VH 1: EVQLVQSGPVLAKPTETLTLTCTVSGFSLSNIRMGVSWIRQPPGKALEWLAHIFSNDDKSYSPSLKNRLTISKDTSKSQVVLTMTTMDPMDTATYYCTRMKYSGGPFDYWGQGTLVTVSS VH 2: QVQLQESGPGLVKPSETLSLTCTVSGGSISGHYWSWIRQSPGKGLEWIGYITYSGSTNYNPSLKSRVTISVDTSKNQFSLKLSSVTAADTAVYYCGTIAVAGRVYYYGVDVWGRGTTVTVSS VL: not shown | 59 | 58.6 | 99.9 | 70.2 | 15 | 0.00341 | 227000 | 33.1 | 0.00322 | 97300 | 21.8 | 0.00051 | 23400 |
| anti-HER3/MET bispecific antibody 1B2-2F11 (bispecific antibody, V domains shown) VH 1: QVQLVQSGPVLVKPTETLTLTCTVSTFSLSNARMGVSWIRQPPGKALEWLAHIFSNDDKSYSPSLKSRLTISKDTSKTQVVLTMTNMDPVDTATYYCSRMRYSGGPFDYWGQGSLVTVSS VH 2: EVQLVESGPGLVKPSETLSLTCTVSGGSISSNYWSWIRQPPGKGLEWIGYIYHSGSTNYNPSLKSRVTISVDTSKNQFSLKLSSVTAADTAVYFCARGPVSIFGVVKYIDLWGRGTLVTVSS VL: not shown | 51.4 | 56.3 | 99.8 | 66.4 | 16.1 | 0.00253 | 157000 | 38.9 | 0.00255 | 65600 | 40.4 | 0.00255 | 63200 |
